Data on five molecules can be found in publication doi:10.1101/2020.07.24.212647 (bioRxiv, 2020).

Like-named read-outs stand apart in the source and are kept apart here.

Data set [1] deals with Corynebacterium mustelae E2p catalytic domain (CmE2p_CD) (Corynebacterium mustelae). As to the kind of experiment: crystal structure.
Data set [2] deals with the molecule itself. As to the kind of experiment: AUC.
Data set [3] deals with the molecule itself. As to the kind of experiment: AUC. This is another data set of the same source.
The data set “crystal structure” concerns the molecule itself. Put plainly: crystal structure.

Regarding “Corynebacterium mustelae E2p catalytic domain (CmE2p_CD) (domain or fragment)”, the stoichiometry N in data set [1] is 3.

B1: C. glutamicum E2p catalytic domain (CgE2p_CD) (domain or fragment)
chain: LRGTTQKVNRIREITAMKTVEALQISAQLTQLHEVDMTRVAELRKKNKPAFIEKHGVNLTYLPFFVKAVVEALVSHPNVNASFNAKTKEMTYHSSVNLSIAVDTPAGLLTPVIHDAQDLSIPEIAKAIVDLADRSRNNKLKPNDLSGGTFTITNIGSEGALSDTPILVPPQAGILGTGAIVKRPVVITEDGIDSIAIRQMVFLPLTYDHQVVDGADAGRFLTTIKDRLETANFEGDLQL
Turning to B1, in “AUC [2]”, the “stoichiometry N” value worked out at 3.

B2: C. glutamicum E2p, full-length (CgE2p_FL) (enzyme)
chain: MAFSVEMPELGESVTEGTITQWLKSVGDTVEVDEPLLEVSTDKVDTEIPSPVAGVILEIKAEEDDTVDVGGVIAIIGDADETPANEAPADEAPAPAEEEEPVKEEPKKEAAPEAPAATGAATDVEMPELGESVTEGTITQWLKAVGDTVEVDEPLLEVSTDKVDTEIPSPVAGTIVEILADEDDTVDVGAVIARIGDANAAAAPAEEEAAPAEEEEPVKEEPKKEAAPEAPAATGAATDVEMPELGESVTEGTITQWLKAVGDTVEVDEPLLEVSTDKVDTEIPSPVAGTIVEILADEDDTVDVGAVIARIGDANAAAAPAEEEAAPAEEEEPVKEEPKKEEPKKEEPKKEAATTPAAASATVSASGDNVPYVTPLVRKLAEKHGVDLNTVTGTGIGGRIRKQDVLAAANGEAAPAEAAAPVSAWSTKSVDPEKAKLRGTTQKVNRIREITAMKTVEALQISAQLTQLHEVDMTRVAELRKKNKPAFIEKHGVNLTYLPFFVKAVVEALVSHPNVNASFNAKTKEMTYHSSVNLSIAVDTPAGLLTPVIHDAQDLSIPEIAKAIVDLADRSRNNKLKPNDLSGGTFTITNIGSEGALSDTPILVPPQAGILGTGAIVKRPVVITEDGIDSIAIRQMVFLPLTYDHQVVDGADAGRFLTTIKDRLETANFEGDLQL
In the case of B2, the “stoichiometry N” value in “AUC [2]” came out at 3.

B3: M. tuberculosis E2b, full-length (MtE2b_FL) (enzyme)
chain: MSGEDSIRSFPVPDLGEGLQEVTVTCWSVAVGDDVEINQTLCSVETAKAEVEIPSPYAGRIVELGGAEGDVLKVGAELVRIDTGPTAVAQPNGEGAVPTLVGYGADTAIETSRRTSRPLAAPVVRKLAKELAVDLAALQRGSGAGGVITRADVLAAARGGVGAGPDVRPVHGVHARMAEKMTLSHKEIPTAKASVEVICAELLRLRDRFVSAAPEITPFALTLRLLVIALKHNVILNSTWVDSGEGPQVHVHRGVHLGFGAATERGLLVPVVTDAQDKNTRELASRVAELITGAREGTLTPAELRGSTFTVSNFGALGVDDGVPVINHPEAAILGLGAIKPRPVVVGGEVVARPTMTLTCVFDHRVVDGAQVAQFMCELRDLIESPETALLDL
With B3, the “stoichiometry N” value in the data set “AUC [3]” came to 24.

B4: C. glutamicum E2p catalytic core and peripheral subunit binding domain (CgE2p-ΔLBDs) (domain or fragment)
chain: YVTPLVRKLAEKHGVDLNTVTGTGIGGRIRKQDVLAAANGEAAPAEAAAPVSAWSTKSVDPEKAKLRGTTQKVNRIREITAMKTVEALQISAQLTQLHEVDMTRVAELRKKNKPAFIEKHGVNLTYLPFFVKAVVEALVSHPNVNASFNAKTKEMTYHSSVNLSIAVDTPAGLLTPVIHDAQDLSIPEIAKAIVDLADRSRNNKLKPNDLSGGTFTITNIGSEGALSDTPILVPPQAGILGTGAIVKRPVVITEDGIDSIAIRQMVFLPLTYDHQVVDGADAGRFLTTIKDRLETANFEGDLQL
Turning to B4, the binding result in the data set “crystal structure” is given as “binds”.
